According to patent publication US20180142007A1 (AXON NEUROSCIENCE, published 2018):

Assays:
Test in all cases: direct ELISA, tau peptide coated on plate
tau peptide 352-380 = target: T1, tau peptide 352-380 (human)
T1 construct: Synthetic peptide (EZBiolabs), numbered on tau 2N4R
T1 peptide: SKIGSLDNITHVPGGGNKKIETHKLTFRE

tau peptide 314-342 = target: T2, tau peptide 314-342 (human)
T2 construct: Synthetic peptide (EZBiolabs), numbered on tau 2N4R
T2 peptide: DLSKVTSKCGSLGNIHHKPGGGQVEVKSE

tau peptide 256-285 = target: T3, tau peptide 256-285 (human)
T3 construct: Synthetic peptide (EZBiolabs), numbered on tau 2N4R
T3 peptide: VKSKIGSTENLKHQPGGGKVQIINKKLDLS

tau peptide 282-311 = target: T4, tau peptide 282-311 (human)
T4 construct: Synthetic peptide (EZBiolabs), numbered on tau 2N4R; also called peptide derived from MTBRII
T4 peptide: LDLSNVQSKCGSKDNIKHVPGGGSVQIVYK

Measured: binding result

B1: mouse monoclonal antibody DC8E8 (antibody, mouse IgG1)
heavy: QVQLQQSGPELVKPGTSVKMPCKASGYIFTDYVISWVKQRTGQGLEWIGEIFPRSGSTYYNEKFKGKATLTADKSSNTAYMQLSSVTSEDSAVYFCARDYYGTSFAMDYWGQGTSVTVSSAKTTPPSVYPLAPGSAAQTNSMVTLGCLVKGYFPEPVTVTWNSGSLSSGVHTFPAVLQSDLYTLSSSVTVPSSTWPSQTVTCNVAHPASSTKVDKKIVPRDCGCKPCICTVPEVSSVFIFPPKPKDVLTITLTPKVTCVVVDISKDDPEVQFSWFVDDVEVHTAQTKPREEQINSTFRSVSELPIMHQDWLNGKEFKCRVNSAAFPAPIEKTISKTKGRPKAPQVYTIPPPKEQMAKDKVSLTCMITNFFPEDITVEWQWNGQPAENYKNTQPIMDTDGSYFVYSKLNVQKSNWEAGNTFTCSVLHEGLHNHHTEKSLSHSPGK
VL: DIVMSQSPSSLAVSAGEKVTMSCKSSQSLLNSRTRKNYLAWYQQKPGQSPKLLIYWASTRESGVPDRFTGSGSGTDFTLTISSVQAEDLAVYYCKQSFYLRTFGGGTKLDIK
notes: also called murine DC8E8; mouse DC8E8
binds: tau peptide 352-380 | tau peptide 314-342 | tau peptide 256-285

B2: chimeric DC8E8 (isotype not stated where tested) (antibody)
VH: QVQLQQSGPELVKPGTSVKMPCKASGYIFTDYVISWVKQRTGQGLEWIGEIFPRSGSTYYNEKFKGKATLTADKSSNTAYMQLSSVTSEDSAVYFCARDYYGTSFAMDYWGQGTSVTVSS
light: DIVMSQSPSSLAVSAGEKVTMSCKSSQSLLNSRTRKNYLAWYQQKPGQSPKLLIYWASTRESGVPDRFTGSGSGTDFTLTISSVQAEDLAVYYCKQSFYLRTFGGGTKLDIKRTVAAPSVFIFPPSDEQLKSGTASVVCLLNNFYPREAKVQWKVDNALQSGNSQESVTEQDSKDSTYSLSSTLTLSKADYEKHKVYACEVTHQGLSSPVTKSFNRGEC
notes: Whole chimeric antibody with human constant regions; also called chimeric antibody
binds: all assays above
